# The supplement of paper PMC10567573
# ± gives the standard deviation.
# Assay: protein stability index of a GFP-peptide fusion (GPS, HEK-293T) (PSI 1-6); higher = more stable
# Conditions: c terminus: a fixed tail appended
# 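Also: 24-mer peptide tiles fused after GFP, lentivirally expressed, FACS-sorted into six equal bins by GFP/DsRed ratio, decoded by Illumina sequencing, PSI is the read-weighted mean bin number.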
Sequence,protein stability index (treatment: DMSO),"protein stability index (treatment: MLN4924 1 uM, 8 h)"
MFSDNSHCPDCGQQWFPSLELGHW [TOR1AIP2],2.33 ± 0.35,2.44 ± 0.34
MGGSGSRLSKELLAEYQDLTFLTK [CIB1],3.175 ± 0.031,3.27 ± 0.28
MGPYNPDTCPEVGFFDVLGNDRRR [ACBD3],4.08 ± 0.37,4.02 ± 0.35
MGWKKACDELELHQRFLREGRFWK [ZMYND11],2.52 ± 0.19,2.99 ± 0.18
MLAEIFCQTGGVEDQEEWHAQVVE [ZBED1],3.05 ± 0.2,3.49 ± 0.4
MLDMKVNPIQGLASKWDYEKNEWK [COX4I1],3.75 ± 0.18,3.65 ± 0.21
MLGRLGYLNHVRAASPQDLAGGYT [MNAT1],2.61 ± 0.14,2.59 ± 0.37
MLSKGLKRKREEEEEKEPLAVDSW [SERTAD1],4.84 ± 0.25,4.87 ± 0.092
MNEVKESLRSIEQKYKLFQQQQLT [SPACA9],3.33 ± 0.13,3.2 ± 0.22
MPIPEDLSTTSGGQQSSKSDRVVA [IKZF1],5.44 ± 0.16,5.39 ± 0.2
MQLPPALCARLAAGPGAAEPLPVE [ZNF511],3.97 ± 0.18,3.86 ± 0.11
MQVLVTAISPGRFPEALDELPLPP [ANKRD9],2.17 ± 0.48,2.23 ± 0.19
MRPTLIDLLPTFRHTLQKLTCEFN [FBXO39],2.35 ± 0.31,2.44 ± 0.54
MRRQEPLPPPPPPSRGGNQLPRPP [WAS],4.8 ± 0.18,4.89 ± 0.17
MSAQSVEEDSILIIPTPDEEEKIL [ZNF24],5.08 ± 0.19,5.23 ± 0.1
MSEMAELSELYEESSDLQMDVMPG [EID1],5.43 ± 0.088,5.25 ± 0.32
MSGSCAVCVDRVLYLFGGHHSRGN [KLHDC2],2.35 ± 0.55,1.75 ± 0.36
MSYDEISQLRLVCKRMDLVCQRML [FBXO28],2.43 ± 0.34,2.25 ± 0.36
MTDGILGKAATMEIPIHGNGEARQ [ARFIP2],4.58 ± 0.16,4.57 ± 0.13
MTEKQQEEAEWESINVLLMMHGLK [CEP70],2.62 ± 0.27,2.73 ± 0.22
MTEWKHQRITKQLEKWMQKNVEEN [GLT8D2],3.85 ± 0.21,3.97 ± 0.41
MTGRVCRGCGGTDIELDAARGDAV [BRF1],3.65 ± 0.12,3.77 ± 0.18

Sequence,protein stability index (treatment: DMSO),"protein stability index (treatment: MLN4924 1 uM, 8 h)"
MTSSSAYYYTKVMSELFLHTPSDT [PKD2L1],2.51 ± 0.28,2.16 ± 0.28
MVLSRPCHPDDQFTTSILRHWCMK [INTS3],2.21 ± 0.18,2.26 ± 0.24
MVRSVAWAGFMVLLMIPWGSAAKL [CHIT1],3.13 ± 0.57,2.87 ± 0.2
MYPESTTGSPARLSLRQTGSPGMI [KCNAB2],3.7 ± 0.51,4.1 ± 0.4
MYSSSCETTRNTTGIEESTDGMIL [LARP4],4.33 ± 0.24,4.48 ± 0.23
NAILQLVKKYKSMKLEKEEFVTLK [ESRRG],2.24 ± 0.37,2.29 ± 0.12
NDTDFRVYLLGNPVVWWLNLLSIA [POMT2],2.89 ± 0.48,3.11 ± 0.47
NFDHFEILRAIGKGSFGKVCIVQK [STK32A],2.87 ± 0.27,3.02 ± 0.24
NFSTFIKCIFTQFRIILGDFDYNA [PKD2L1],2.98 ± 0.36,2.94 ± 0.41
NGGMATTSAEIELPDVEPAAFLAL [BTBD1],3.86 ± 0.25,4.02 ± 0.22
NGLEDIDRILERIEDSTGLNRPGP [TCF25],4.48 ± 0.21,4.75 ± 0.21
NGSGDMIFEGNSEKEIPVLNELPV [CPXM2],4.79 ± 0.34,5.01 ± 0.25
NKKYYKKFSIPDLDRHQLPLDDAL [DPCD],3.46 ± 0.13,3.55 ± 0.26
NKLALQYGCKVADIKKVNNFIREQ [LYSMD4],2.25 ± 0.22,2.38 ± 0.42
NLLLTYLIVTSLLLLPGLNQHGII [ARL6IP1],3.32 ± 0.47,3.25 ± 0.13
NLLSIALYLLSGSIIAVAMQRGAR [POMT2],3.2 ± 0.36,3.34 ± 0.13
NLYVFGGYNPDYDESGGPDNEDYP [KLHDC10],3.9 ± 0.28,4.09 ± 0.22
NMCLVATGGADAYYEMGIHCWDVA [IMPA1],2.13 ± 0.23,2.3 ± 0.18
NNIMKCRSRYDGHRIWMYNCHIGG [LOXL2],2.5 ± 0.69,2.33 ± 0.42
NPIQKEEDEGVDLSEGSSNEDEDL [SPANXN3],4.96 ± 0.43,4.95 ± 0.39
NPPAQPAPNAWQVIKGVLFRIFII [CLPTM1],1.9 ± 0.18,2.09 ± 0.15
NPTSAPGSRLAEFGAAGVNRLSIG [RSAD1],3.87 ± 0.072,3.64 ± 0.28
